Measured values from article doi:10.1101/432138.

Biological target: P02671
Assay: SEC-MALS

B1: Fib1 fibrinogen (protein)
chain 1: GPRVVERHQSACKDSDWPFCSDEDWNYKCPSGCRMKGLIDEVNQDFTNRINKLKNSLFEYQKNNKDSHSLTTNIMEILRGDFSSANNRDNTYNRVSEDLRSRIEVLKRKVIEKVQHIQLLQKNVRAQLVDMKRLEVDIDIKIRSCRGSCSRALAREVDLKDYEDQQKQLEQVIAKDLLPSRDRQHLPLIKMKPVPDLVPGNFKSQLQKVPPEWKALTDMPQMRMELERPGGNEITRGGSTSYGTGSETESPRNPSSAGSWNSGSSGPGSTGNRNPGSSGTGGTATWKPGSSGPGSTGSWNSGSSGTGSTGNQNPGSPRPGSTGTWNPGSSERGSAGHWTSESSVSGSTGQWHSESGSFRPDSPGSGNARPNNPDWGTFEEVSGNVSPGTRREYHTEKLVTSKGDKELRTGKEKVTSGSTTTTRRSCSKTVTKTVIGPDGHKEVTKEVVTSEDGSDCPEAMDLGTLSGIGTLDGFRHRHPDEAAFFDTASTGKTFPGFFSPMLGEFVSETESRGSESGIFTNTKESSSHHPGIAEFPSRGKSSSYSKQFTSSTSYNRGDSTFESKSYKMADEAGSEADHEGTHSTKRGHAKSRPVRDCDDVLQTHPSGTQSGIFNIKLPGSSKIFSVYCDQETSLGGWLLIQQRMDGSLNFNRTWQDYKRGFGSLNDEGEGEFWLGNDYLHLLTQRGSVLRVELEDWAGNEAYAEYHFRVGSEAEGYALQVSSYEGTAGDALIEGSVEEGAEYTSHNNMQFSTFDRDADQWEENCAEVYGGGWWYNNCQAANLNGIYYPGGSYDPRNNSPYEIENGVVWVSFRGADYSLRAVRMKIRPLVTQ
chain 2: GHRPLDKKREEAPSLRPAPPPISGGGYRARPAKAAATQKKVERKAPDAGGCLHADPDLGVLCPTGCQLQEALLQQERPIRNSVDELNNNVEAVSQTSSSSFQYMYLLKDLWQKRQKQVKDNENVVNEYSSELEKHQLYIDETVNSNIPTNLRVLRSILENLRSKIQKLESDVSAQMEYCRTPCTVSCNIPVVSGKECEEIIRKGGETSEMYLIQPDSSVKPYRVYCDMNTENGGWTVIQNRQDGSVDFGRKWDPYKQGFGNVATNTDGKNYCGLPGEYWLGNDKISQLTRMGPTELLIEMEDWKGDKVKAHYGGFTVQNEANKYQISVNKYRGTAGNALMDGASQLMGENRTMTIHNGMFFSTYDRDNDGWLTSDPRKQCSKEDGGGWWYNRCHAANPNGRYYWGGQYTWDMAKHGTDDGVVWMNWKGSWYSMRKMSMKIRPFFPQQ
chain 3: YVATRDNCCILDERFGSYCPTTCGIADFLSTYQTKVDKDLQSLEDILHQVENKTSEVKQLIKAIQLTYNPDESSKPNMIDAATLKSRKMLEEIMKYEASILTHDSSIRYLQEIYNSNNQKIVNLKEKVAQLEAQCQEPCKDTVQIHDITGKDCQDIANKGAKQSGLYFIKPLKANQQFLVYCEIDGSGNGWTVFQKRLDGSVDFKKNWIQYKEGFGHLSPTGTTEFWLGNEKIHLISTQSAIPYALRVELEDWNGRTSTADYAMFKVGPEADKYRLTYAYFAGGDAGDAFDGFDFGDDPSDKFFTSHNGMQFSTWDNDNDKFEGNCAEQDGSGWWMNKCHAGHLNGVYYQGGTYSKASTPNGYDNGIIWATWKTRWYSMKKTTMKIIPFNRLTIGEGQQHHLGGAKQVRPEHPAETEYDSLYPEDDL
- relative mass of the aggregates: about 4% of the total mass of fibrinogen
